Experimental data published in patent US20250017962A1 (US Dept. of Health and Human Services, published 2025).

T1: GPC1-hFc (UniProt P35052 24-530, limits assumed)
T1 construct: not shown: human Fc tag (hFc)
T1 sequence (looked up): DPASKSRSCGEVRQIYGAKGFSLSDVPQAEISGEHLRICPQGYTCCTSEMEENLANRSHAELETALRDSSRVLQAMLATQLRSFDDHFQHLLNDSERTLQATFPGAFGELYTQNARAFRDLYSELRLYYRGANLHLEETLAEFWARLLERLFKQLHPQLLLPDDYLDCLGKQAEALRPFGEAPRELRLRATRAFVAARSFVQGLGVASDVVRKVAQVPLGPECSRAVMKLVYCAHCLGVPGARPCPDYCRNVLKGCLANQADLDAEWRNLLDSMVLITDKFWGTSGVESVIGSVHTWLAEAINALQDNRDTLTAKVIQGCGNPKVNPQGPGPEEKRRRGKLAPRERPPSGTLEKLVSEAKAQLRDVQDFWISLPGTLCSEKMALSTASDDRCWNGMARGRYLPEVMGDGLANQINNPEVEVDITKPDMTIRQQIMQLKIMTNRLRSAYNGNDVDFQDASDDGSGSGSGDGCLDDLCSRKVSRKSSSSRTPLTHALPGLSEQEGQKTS


Legend:
GPC1-hFc = target: T1, GPC1-hFc; assay: flow cytometry, hFc-tagged protein on CAR-expressing Jurkat cells
Method: To test antigen specificity and cell binding capacity of the engineered GPC3-targeted CARs, T cell lines (Jurkat) transfected with the CAR constructs were developed and binding to GPC3 tagged with human Fc (GPC3-hFc) was assessed. First, successful transduction (95-98%) of all of the CAR constructs was confirmed using the truncated EGFR marker expressed by the CAR lentivirus. […] All CAR T cells specifically bound to GPC3-hFc (FIG. 1A) and not GPC1-hFc (FIG. 1B) at the same concentrations.

[1] = target: glypican-3 (GPC3) on HCC cell lines Hep3B, Huh7 and HepG2 (human, UniProt P51654 25-580); assay: cell-based or functional assay
glypican-3 (GPC3) on HCC cell lines Hep3B, Huh7 and HepG2, sequence (P51654 25-580): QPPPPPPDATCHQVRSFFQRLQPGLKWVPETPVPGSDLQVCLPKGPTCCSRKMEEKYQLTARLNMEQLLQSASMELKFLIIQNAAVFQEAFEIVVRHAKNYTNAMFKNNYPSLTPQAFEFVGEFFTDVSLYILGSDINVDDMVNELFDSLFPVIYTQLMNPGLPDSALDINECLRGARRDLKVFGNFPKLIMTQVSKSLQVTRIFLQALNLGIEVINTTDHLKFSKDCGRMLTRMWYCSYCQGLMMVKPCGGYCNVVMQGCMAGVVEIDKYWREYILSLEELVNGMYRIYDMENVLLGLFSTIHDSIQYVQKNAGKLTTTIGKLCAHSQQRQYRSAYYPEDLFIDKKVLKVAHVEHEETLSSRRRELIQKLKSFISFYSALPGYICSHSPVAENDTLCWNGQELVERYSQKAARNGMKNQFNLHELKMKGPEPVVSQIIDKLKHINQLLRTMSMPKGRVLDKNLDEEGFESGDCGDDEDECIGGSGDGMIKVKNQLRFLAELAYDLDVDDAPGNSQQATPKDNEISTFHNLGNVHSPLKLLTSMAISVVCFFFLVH

Binder | binding result (GPC1-hFc) | potency (killing) relative to HN3-CD8H-CD28TM [1] [%] | killing relative to HN3-CD8H-CD8TM CAR T cells [1] [%]
HN3-IgG4H-CD28TM CAR (other, also called HN3-IgG4-CD28TM; HN3-IgGH-CD28TM) HMQVQLVQSGGGLVQPGGSLRLSCAASYFDFDSYEMSWVRQAPGKGLEWIGSIYHSGSTYYNPSLKSRVTISRDNSKNTLYLQMNTLRAEDTATYYCARVNMDRFDYWGQGTLVTVSSTSESKYGPPCPPCPFWVLVVVGGVLACYSLLVTVAFIIFWVKRGRKKLLYIFKQPFMRPVQTTQEEDGCSCRFPEEEEGGCELRVKFSRSADAPAYQQGQNQLYNELNLGRREEYDVLDKRRGRDPEMGGKPRRKNPQEGLYNELQKDKMAEAYSEIGMKGERRRGKGHDGLYQGLSTATKDTYDALHMQALPPR | no binding (tested: 1, 2 and 5 µg/mL) | 10 to 20 | –
HN3-CD8H-CD28TM CAR (other) HMQVQLVQSGGGLVQPGGSLRLSCAASYFDFDSYEMSWVRQAPGKGLEWIGSIYHSGSTYYNPSLKSRVTISRDNSKNTLYLQMNTLRAEDTATYYCARVNMDRFDYWGQGTLVTVSSTSTTTPAPRPPTPAPTIASQPLSLRPEACRPAAGGAVHTRGLDFACDFWVLVVVGGVLACYSLLVTVAFIIFWVKRGRKKLLYIFKQPFMRPVQTTQEEDGCSCRFPEEEEGGCELRVKFSRSADAPAYQQGQNQLYNELNLGRREEYDVLDKRRGRDPEMGGKPRRKNPQEGLYNELQKDKMAEAYSEIGMKGERRRGKGHDGLYQGLSTATKDTYDALHMQALPPR | no binding (tested: 1, 2 and 5 µg/mL) | – | 40
hYP7-CD8H-CD8TM CAR (other) HMEVQLVESGGGLVQPGGSLRLSCAASGFTFNKNAMNWVRQAPGKGLEWVGRIRNKTNNYATYYADSVKARFTISRDDSKNSLYLQMNSLKTEDTAVYYCVAGNSFAYWGQGTLVTVSAGGGGSGGGGSGGGGSDIVMTQSPDSLAVSLGERATINCKSSQSLLYSSNQKNYLAWYQQKPGQPPKLLIYWASSRESGVPDRFSGSGSGTDFTLTISSLQAEDVAVYYCQQYYNYPLTFGQGTKLEIKTSTTTPAPRPPTPAPTIASQPLSLRPEACRPAAGGAVHTRGLDFACDIYIWAPLAGTCGVLLLSLVITKRGRKKLLYIFKQPFMRPVQTTQEEDGCSCRFPEEEEGGCELRVKFSRSADAPAYQQGQNQLYNELNLGRREEYDVLDKRRGRDPEMGGKPRRKNPQEGLYNELQKDKMAEAYSEIGMKGERRRGKGHDGLYQGLSTATKDTYDALHMQALPPR | no binding (tested: 1, 2 and 5 µg/mL) | – | –
HN3-IgG4H-CD8TM CAR (other) HMQVQLVQSGGGLVQPGGSLRLSCAASYFDFDSYEMSWVRQAPGKGLEWIGSIYHSGSTYYNPSLKSRVTISRDNSKNTLYLQMNTLRAEDTATYYCARVNMDRFDYWGQGTLVTVSSTSESKYGPPCPPCPIYIWAPLAGTCGVLLLSLVITKRGRKKLLYIFKQPFMRPVQTTQEEDGCSCRFPEEEEGGCELRVKFSRSADAPAYQQGQNQLYNELNLGRREEYDVLDKRRGRDPEMGGKPRRKNPQEGLYNELQKDKMAEAYSEIGMKGERRRGKGHDGLYQGLSTATKDTYDALHMQALPPR | no binding (tested: 1, 2 and 5 µg/mL) | – | –
